Measured values from patent US11655307B2, “Anti-doublecortin-like kinase 1 antibodies and methods of use” (The Board of Regents of the University of Oklahoma, priority 2017, dated 2023).
Entries after “also recorded” stand apart in the source; their conditions may differ.

Experiments:
[1] = system: Caki-2 cells overexpressing DCLK1; assay: Proliferation/drug resistance assay (MTT), DCLK1-overexpressing cells; type: cell-based, human; conditions: increasing drug concentrations; FIG. 16-17
Excerpt: This gBlock also contains a part of human DCLK1 isoform 1 sequence shared with isoform 2, with the addition of the unique DCLK1 isoform 2 C-terminal sequence (NCBI Reference Sequence: XM_005266592.2). The vector containing DCLK1 isoform 1 and the gBlock were digested with EcoRI and Scat Both digested vector and gBlock fragment were gel purified and DCLK1 isoform 2 was constructed by ligating the digested vector with the synthetic DNA fragment. The ligated cDNA product was confirmed by automatic sequencing. […] RCC cell line Caki-2 was infected with Lentivirus containing human DCLK1 cDNA sequence to overexpress DCLK1 Isoform 2/long-α (caki2-dsRed-DCLK1) or red fluorescent protein (RFP) cDNA as control (caki2-dsRed) and selected to 100% expression with puromycin.
Cells (5000/well) were seeded into a 96-well tissue culture plate in quadruplicate. […] 48 or 72 h after incubation, 10 μL of MTT (RND Systems) was added to each well and cells were incubated at 37° C. for 4 h. […] In order to fully dissolve the precipitated MTT crystals, the plate was placed on a shaker at low speed for 1 min and a microplate reader was used to read the OD570 for each well.
The high level of expression of vascular endothelial growth factor (VEGF) and its receptors in RCC supports its highly vascular nature making VEGF and its receptors therapeutic targets. […] Given the tight relationship between sternness and the response to targeted therapies and its importance in patient survival, we further investigated DCLK1's role in this process. Caki-2 cells overexpressing DCLK1 were seeded into 96-well plates, allowed to attach overnight, and then treated with increasing concentrations of sunitinib or sorafenib. Relative cell viability was then evaluated by MTT assay.
The intracellular serine/threonine kinase mTOR is involved in a wide range of pathways and plays an essential role in cellular metabolism and cancer progression.

[2] = target: T1, DCLK1 isoform 4 purified protein (Homo sapiens, UniProt O15075); assay: Western blotting against purified DCLK1 protein; type: binding; conditions: FIG. 1
T1 sequence (O15075 1-433 isoform O15075-4): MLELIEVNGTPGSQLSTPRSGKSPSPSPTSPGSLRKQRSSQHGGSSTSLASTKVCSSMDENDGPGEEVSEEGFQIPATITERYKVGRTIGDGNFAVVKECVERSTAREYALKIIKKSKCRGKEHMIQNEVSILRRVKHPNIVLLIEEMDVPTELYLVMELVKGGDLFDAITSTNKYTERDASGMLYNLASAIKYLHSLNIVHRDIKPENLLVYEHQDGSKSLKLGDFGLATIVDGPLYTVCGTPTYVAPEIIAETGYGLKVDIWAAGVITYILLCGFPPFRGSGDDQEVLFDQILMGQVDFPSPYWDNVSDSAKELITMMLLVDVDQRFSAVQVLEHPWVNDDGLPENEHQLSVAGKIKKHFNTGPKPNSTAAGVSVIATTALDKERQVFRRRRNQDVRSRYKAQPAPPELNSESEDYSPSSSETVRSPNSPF
Procedure: Lysates from ACHN or CAKI2 cells were subjected to Western blot analysis. The concentration of total proteins was determined by BCA protein assay (Pierce, Rockford, Ill.). 40 μg of protein lysates were size separated on a 4%-20% SDS polyacrylamide gel and transferred onto a PVDF membrane. The membrane was blocked in 1% caseine for 30 minutes and probed with primary antibody α-DCLK1 (ABCAM, ab31704), HIF-1α (ABCAM, ab2185), Vimentin (Santa Cruz, S.C.-7557), ALDH1A1 (ABCAM, ab52492), β-Actin (ABCAM, ab8226) overnight at 4° C. The membrane was then washed 3 times with TBST and probed with species-appropriate secondary antibody (cw800-conjugated) for 30 mins at room temperature protected from light. Finally, proteins were detected using a LICOR Odyssey Infrared Imager and density quantification was performed in Image Studio Lite (LICOR) where appropriate.
The resulting monoclonal antibodies produced from this screening process included an Immunoglobulin A species (CBT-15A) and an Immunoglobulin G213 species (CBT-15G). Following purification of the resulting antibodies, their affinity for DCLK1 was confirmed by Western blotting against DCLK1 isoform 4 purified protein (FIG. 1). […] The ability of these antibodies to bind extracellular DCLK1 was further apparent in FACS sorting experiments. […]

ACHN cells = assay: In vitro PBMC-killing assay (Caspase-3/7 Glo), renal cancer cells; type: cell-based; conditions: antibody pretreatment, then 72 h co-culture with human PBMC; FIG. 24A
Procedure: ACHN cells were seeded into a 96-well plate at 5×10^4 cells per well and allowed to attach overnight at 37° C. CBT-15 mAB or isotype control mAB were added to the ACHN wells at concentrations of 100 μg/mL in quadruplicate and incubated at 37° C. for 72 h. After mAB treatment, the media was replaced and 1.25×10^5 primary human PBMC cells (ATCC) were co-incubated with the ACHN cells for 72 h. Finally, luminescent CaspaseGlo® 3/7 activity (Promega) assay was performed according to the manufacturer's protocol as a surrogate measure of apoptosis.
(§1) To further assess the functional relevance of these findings we seeded ACHN renal and AsPC-1 pancreatic cancer cells into 96 wells and subjected them to antibody-dependent cell-mediated cytotoxicity assay. Briefly, 10^4 cancer cells were seeded into each well after 48 hours pretreatment with either isotype control or CBT-15 monoclonal antibody. Human peripheral blood […] were then seeded into each well at 10^5 cells per well and co-cultured for 72 h. After 72 h Caspase-3/7 Glo assay was performed to assess apoptosis.

[3] = system: AsPC-1 pancreatic cancer cells; assay: In vitro PBMC-killing assay (Caspase-3/7 Glo), pancreatic cancer cells; type: cell-based; conditions: 48 h antibody pretreatment, then 72 h co-culture with human PBMC; FIG. 24B
Procedure: as §1

[4] = system: pancreatic cancer SW1990 tumor xenograft; assay: SW1990 xenograft tumor study; type: in vivo, mice; conditions: 25 mg/kg biweekly
Procedure: 0.5×10^6 cells were injected into the flanks of 8 week-old athymic nude mice and the resulting tumors were allowed to grow to an average volume 100 mm^3. Upon reaching this volume we began delivering CBT-15 or isotype control mAB at 25 mg/kg biweekly. Tumor volume measurements were taken approximately every other day. At the end of 4 weeks from the start of injections animals were culled and tumors were excised, measured, and weighed.

CNC(=O)c1cc(Oc2ccc(NC(=O)Nc3ccc(Cl)c(C(F)(F)F)c3)cc2)ccn1 [sorafenib]
sensitivity of DCLK1-overexpressing cells to the drug compared to dsRed vector control cells (relative cell viability, MTT) [1]: did not elicit significant resistance; also recorded: not resistant

CO[C@H]1C[C@@H]2CC[C@@H](C)[C@@](O)(O2)C(=O)C(=O)N2CCCC[C@H]2C(=O)O[C@H]([C@H](C)C[C@@H]2CC[C@@H](OC(=O)C(C)(CO)CO)[C@H](OC)C2)CC(=O)[C@H](C)/C=C(\C)[C@@H](O)[C@@H](OC)C(=O)[C@H](C)C[C@H](C)/C=C/C=C/C=C/1C [temsirolimus]
sensitivity of DCLK1-overexpressing cells to the drug compared to dsRed vector control cells (relative cell viability, MTT) [1]: significantly decreases sensitivity

CO[C@H]1C[C@@H]2CC[C@@H](C)[C@@](O)(O2)C(=O)C(=O)N2CCCC[C@H]2C(=O)O[C@H]([C@H](C)C[C@@H]2CC[C@@H](OCCO)[C@H](OC)C2)CC(=O)[C@H](C)/C=C(\C)[C@@H](O)[C@@H](OC)C(=O)[C@H](C)C[C@H](C)/C=C/C=C/C=C/1C [everolimus]
sensitivity of DCLK1-overexpressing cells to the drug compared to dsRed vector control cells (relative cell viability, MTT) [1]: significantly decreases sensitivity

B1: CBT-15G: Anti-DCLK1 mouse monoclonal antibody, Immunoglobulin G213 species, raised against immunogen no. 8; VH SEQ ID NO:24, VL SEQ ID NO:26 (antibody, V domains shown)
VH: EVQLQQSGTALARPGASVKMSCKASGYSFTSYWMHWVKQRPGQGLEWIGAIYPGKSDTSYNQKFKGKAKLTAVTSASTAYMELSSLTNEDSAVYYCTRYGKGAMDYWGQGTSVTVSS
VL: DIVLTQSHKFMSTSVGDRVTITCKASQDVNTAVAWYQKKPGQSPKLLIYWASTRLTGVPDRFTGSGSGTDYTLTISSVQAEDLALYYCQQHYSTPYTFGGGTKLEIK
modifications: HC variable AA sequence of CBT-15G; LC variable AA sequence of CBT-15G
affinity for DCLK1 by Western blot (detection of purified DCLK1 protein) [2]: confirmed; also recorded: detect | PBMC mediated apoptosis, Caspase-3/7 activity relative to isotype control (ACHN cells): can sensitize | immune cell mediated cell killing, Caspase-3/7 activity relative to isotype control [3]: significantly increased; also recorded: increase | excised tumor volume vs isotype mAB ([4]; end of treatment, FIG. 29, 32): significant decrease | excised tumor weight vs isotype mAB ([4]; end of treatment, FIG. 30, 33): decrease | xenograft tumor growth (tumor volume over time) vs isotype mAB ([4]; athymic nude mice, 4 weeks, FIG. 28, 31, 25 mg/kg): strongly inhibited; also recorded: substantially reduced
